This passage reports Km and Vmax results from ChEMBL document CHEMBL3861952, “Donepezil-like multifunctional agents: Design, synthesis, molecular modeling and biological evaluation” (Eur J Med Chem, 2016).

Substrate in data set [1]: C#CCN(Cc1ccc2cccc(O)c2n1)C(C#N)CCC1CCN(Cc2ccccc2)CC1
The conditions noted are these: Homo sapiens; HEK293; 50 nM.
Description: Inhibition of human recombinant AChE expressed in HEK293 cells using acetylthiocholine iodide as substrate assessed as enzyme Km at 50 nM preincubated for 30 mins followed by substrate addition measured after 30 mins by Lineweaver-Burk plot analysis

Substrate in data set [2]: C#CCN(Cc1ccc2cccc(O)c2n1)C(C#N)CCC1CCN(Cc2ccccc2)CC1
The conditions noted are these: Homo sapiens; HEK293; 20 nM.

Substrate in data set [3]: C#CCN(Cc1ccc2cccc(O)c2n1)C(C#N)CCC1CCN(Cc2ccccc2)CC1
The following applies: Homo sapiens; HEK293; 200 nM.

Substrate in data set [4]: C#CCN(Cc1ccc2cccc(O)c2n1)C(C#N)CCC1CCN(Cc2ccccc2)CC1
The following applies: Homo sapiens; HEK293; 200 nM. The source holds these as a separate data set.

Substrate in data set [5]: C#CCN(Cc1ccc2cccc(O)c2n1)C(C#N)CCC1CCN(Cc2ccccc2)CC1
The conditions noted are these: Homo sapiens; HEK293; 100 nM.

Substrate in data set [6]: C#CCN(Cc1ccc2cccc(O)c2n1)C(C#N)CCC1CCN(Cc2ccccc2)CC1
The following applies: Homo sapiens; HEK293; 20 nM. The source holds these as a separate data set.

Substrate in data set [7]: C#CCN(Cc1ccc2cccc(O)c2n1)C(C#N)CCC1CCN(Cc2ccccc2)CC1
The following applies: Homo sapiens; HEK293; 50 nM. This is another data set of the same source.
Description: Inhibition of human recombinant AChE expressed in HEK293 cells using acetylthiocholine iodide as substrate assessed as enzyme Vmax at 50 nM preincubated for 30 mins followed by substrate addition measured after 30 mins by Lineweaver-Burk plot analysis

Substrate in data set [8]: C#CCN(Cc1ccc2cccc(O)c2n1)C(C#N)CCC1CCN(Cc2ccccc2)CC1
The conditions noted are these: Homo sapiens; HEK293; 100 nM. The source holds these as a separate data set.

Substrate in data set [9]: C#CCN(Cc1ccc2cccc(O)c2n1)C(C#N)CCC1CCN(Cc2ccccc2)CC1
The following applies: Homo sapiens; HEK293; 200 nM. This is another data set of the same source.

Substrate in data set [10]: C#CCN(Cc1ccc2cccc(O)c2n1)C(C#N)CCC1CCN(Cc2ccccc2)CC1
The following applies: Homo sapiens; HEK293; 200 nM. The source holds these as a separate data set.

Substrate in data set [11]: C#CCN(Cc1ccc2cccc(O)c2n1)C(C#N)CCC1CCN(Cc2ccccc2)CC1
The following applies: Homo sapiens; HEK293; 100 nM. This is another data set of the same source.

Substrate in data set [12]: C#CCN(Cc1ccc2cccc(O)c2n1)C(C#N)CCC1CCN(Cc2ccccc2)CC1
The following applies: Homo sapiens; HEK293; 50 nM. The source holds these as a separate data set.
Description: Inhibition of human recombinant BuChE expressed in HEK293 cells using S-butyrylthiocholine iodide as substrate assessed as enzyme Km at 50 nM preincubated for 30 mins followed by substrate addition measured after 30 mins by Ellman's method

Substrate in data set [13]: C#CCN(Cc1ccc2cccc(O)c2n1)C(C#N)CCC1CCN(Cc2ccccc2)CC1
The following applies: Homo sapiens; HEK293; 50 nM. The source holds these as a separate data set.
Description: Inhibition of human recombinant BuChE expressed in HEK293 cells using S-butyrylthiocholine iodide as substrate assessed as enzyme Vmax at 50 nM preincubated for 30 mins followed by substrate addition measured after 30 mins by Lineweaver-Burk plot analysis

Substrate in data set [14]: C#CCN(Cc1ccc2cccc(O)c2n1)C(C#N)CCC1CCN(Cc2ccccc2)CC1
The conditions noted are these: Homo sapiens; HEK293; 100 nM. This is another data set of the same source.

Substrate in data set [15]: C#CCN(Cc1ccc2cccc(O)c2n1)C(C#N)CCC1CCN(Cc2ccccc2)CC1
The conditions noted are these: Homo sapiens; HEK293; 20 nM. This is another data set of the same source.

Substrate in data set [16]: C#CCN(Cc1ccc2cccc(O)c2n1)C(C#N)CCC1CCN(Cc2ccccc2)CC1
The following applies: Homo sapiens; HEK293; 20 nM. The source holds these as a separate data set.

B1: Acetylcholinesterase (Homo sapiens), P22303 (protein)
chain: MRPPQCLLHTPSLASPLLLLLLWLLGGGVGAEGREDAELLVTVRGGRLRGIRLKTPGGPVSAFLGIPFAEPPMGPRRFLPPEPKQPWSGVVDATTFQSVCYQYVDTLYPGFEGTEMWNPNRELSEDCLYLNVWTPYPRPTSPTPVLVWIYGGGFYSGASSLDVYDGRFLVQAERTVLVSMNYRVGAFGFLALPGSREAPGNVGLLDQRLALQWVQENVAAFGGDPTSVTLFGESAGAASVGMHLLSPPSRGLFHRAVLQSGAPNGPWATVGMGEARRRATQLAHLVGCPPGGTGGNDTELVACLRTRPAQVLVNHEWHVLPQESVFRFSFVPVVDGDFLSDTPEALINAGDFHGLQVLVGVVKDEGSYFLVYGAPGFSKDNESLISRAEFLAGVRVGVPQVSDLAAEAVVLHYTDWLHPEDPARLREALSDVVGDHNVVCPVAQLAGRLAAQGARVYAYVFEHRASTLSWPLWMGVPHGYEIEFIFGIPLDPSRNYTAEEKIFAQRLMRYWANFARTGDPNEPRDPKAPQWPPYTAGAQQYVSLDLRPLEVRRGLRAQACAFWNRFLPKLLSATDTLDEAERQWKAEFHRWSSYMVHWKNQFDHYSKQDRCSDL
By Km is commonly meant the substrate concentration at which the rate is half of its maximum. As for B1, the Michaelis constant (Km) in data set [1] is 622 µM; in [3] it was 936 µM; in [5], 955 µM; in data set [6] it was 368 µM. For the same protein, the Vmax in [2] came to 17.7 mAU/min; in data set [4], 7.3 mAU/min; in data set [7], 13 mAU/min; in data set [8], 10.2 mAU/min.

B2: Cholinesterase (Homo sapiens), P06276 (protein)
chain: MHSKVTIICIRFLFWFLLLCMLIGKSHTEDDIIIATKNGKVRGMNLTVFGGTVTAFLGIPYAQPPLGRLRFKKPQSLTKWSDIWNATKYANSCCQNIDQSFPGFHGSEMWNPNTDLSEDCLYLNVWIPAPKPKNATVLIWIYGGGFQTGTSSLHVYDGKFLARVERVIVVSMNYRVGALGFLALPGNPEAPGNMGLFDQQLALQWVQKNIAAFGGNPKSVTLFGESAGAASVSLHLLSPGSHSLFTRAILQSGSFNAPWAVTSLYEARNRTLNLAKLTGCSRENETEIIKCLRNKDPQEILLNEAFVVPYGTPLSVNFGPTVDGDFLTDMPDILLELGQFKKTQILVGVNKDEGTAFLVYGAPGFSKDNNSIITRKEFQEGLKIFFPGVSEFGKESILFHYTDWVDDQRPENYREALGDVVGDYNFICPALEFTKKFSEWGNNAFFYYFEHRSSKLPWPEWMGVMHGYEIEFVFGLPLERRDNYTKAEEILSRSIVKRWANFAKYGNPNETQNNSTSWPVFKSTEQKYLTLNTESTRIMTKLRAQQCRFWTSFFPKVLEMTGNIDEAEWEWKAGFHRWNNYMMDWKNQFNDYTSKKESCVGL
As for B2, the Vmax was found to be 83 mAU/min in data set [9], 87 mAU/min in data set [11], 101 mAU/min in [13] and 108 mAU/min in data set [16]. The Km in [10] was 1240 µM; in data set [12], 289 µM; in [14] it was 456 µM; in data set [15], 249 µM.
